According to the nanobody polyreactivity screen of Harvey et al. (2022):

Test: yeast display, Sf9 membrane polyspecificity reagent, FACS + sequencing; frameworks hold sequencing errors
In short: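 Genes from sorted yeast were amplified by colony PCR, read by MiSeq 2 × 250 sequencing and filtered on CDR length. These cells carried a synthetic nanobody library in Saccharomyces cerevisiae BJ5465 and were sorted by FACS into low and high (top ~1%) gates on anti-HA and streptavidin fluorescence. Polyreactivity is labelled according to the gate of origin.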

Sequence	polyreactivity (PSR sort gate)
QFQLVESGGGLVQAGGSLRLSCAASGSTFLLYAMGWYRQAPGKEREFVASISGDGSSNYADSVKGRFTISRDNAKITVYLQMNSLKPEDTAVYYCAAVLLDPDSTLESGGNFDYWGQGTQVTVSS	low polyreactivity
QFQLVESGGGLVQAGGSLRLSCAASGSTFVFYAMGWYRQAPGKQRELVATISTGGSTYADSVKGRFTISRDNAKNTVYLQMNSLKPEDTAVYYCAADSLFGHYDYSGQGTQVTVSS	low polyreactivity
QFQLVESGGGLVQAGGSLRLSCAASVLTFSAYAMGWYRQAPGKEREFVAAITDSDGSTYYADYVKGRFTISRDNEKNTVYLQMNSLKPEDTAVYYCAASGSWYYGYWSGGYDYWGQGTQVTVSS	low polyreactivity
QFQLVESGGGLVQAGGSLRLSCAATGSIIGANAMGWYRQAPGKERELVAAISTRGGRTYYADSVKGRFTISRDNAKNTVYLQMNSLKPEDTAVYYCATSGGRPYKYEYWGQGTQVTVSS	high polyreactivity
QFQLVESGGGLVQAGGSLRLSCADSGRILRFYAMGWYRQAPGKERELVAAISWTGGRTYYADSVKGRFTISRDNAKNTVYLQMNSLKPEDTAVYYCAAEVFTTGSFRRYDYWGQGTQVTVSS	high polyreactivity
QFQLVESGGGLVQAGGSLRLSCADSVRTLYRNVMVWYRHAPVKERELVAAISLSGGSTYYEDSVKGRFTISRDNANYTVYLQMNSMKPEYTAVYYCAVKRPYCPGEYGYWGQGTQVTVSS	high polyreactivity
QFQLVESGGGLVQAGGSLRLSCASSGIIFKRYAMGWYRQAPGNERELVAAISTSGSTYYADSVKGRFTISRDNAKNTVYLQMNSLKPEDTAVYYCAAGRWWRYFTWHGYWGQGTQVTVSS	high polyreactivity
QFQLVESGGGLVQAGGSLRLSFAASGFIFGLYAMGWYRQAPGIETELVAAISGSGGSTYYADSVKGRFTISRDNAKNTVYLQMNSLKPEDTAVYYCNRAQGVHTYVYRYGYWGQGTQVTVSS	low polyreactivity
QFQLVESGGGLVQAGGSLRLSSAASGSIFRSYAMGWYRQAHGKERELVAAISSRSGSTYYADSVKGRFTISRDNAKNTVYLQMNSLKPEETAVYYCAAQHRHSYGYWGQGTQVTVSS	high polyreactivity
QFQLVESGGGLVQAGGSLSLSCAASGSTLQSYAMGWYRQAPGKERELVAGIRISGGNTRYADSVKGRFTISRDNAKNTVYLQMNSLIPEDTAVYYCAALTGFYNLRPYGYWGQGTQVTVSS	high polyreactivity
QFQLVESGGGLVQARGSLRLSCAPSGRTFGIYTMGWYRPAPGKERELVAAISAGGGRTSYADSVKGRFTISRDHAKNTVYLQMMSLKPEDTAVYYCAARVYQYRNEDTTRRAGRSYWGQGTQVTVSS	high polyreactivity
QFQLVESGGGLVQEGGSLRLSCAPSGSTFRFYAMGWYRQSPGKERELVAVISSAGSTNYADSVKGRFTISRDNAKNTVYLQMNSLKPEDTAVYYCAAYRRYSIYNYWGEGTQVTVSS	high polyreactivity
QFQLVESGRGIVQAGGSLRLSCAASGFTFGPSAMVWYRQAPGKERELVAVISRSGGRTYYADSVKGRFTISRDNAKNTVYLQMNSLKPEDTAVYYCAAAGYGNDGYDYWGQGTQVTVSS	high polyreactivity
QFQLVESGRGLVQAGGSIRLSCAASGSIFRWYAMGWSRQAPGKERELVAAISYGGGSTYYADSVKGRFTISRDNAKNTVYLQMNRLKPEDTAVYYCNRGYPSTLYDYWGQGTQVTVSS	high polyreactivity
QFQLVESGRGLVQAGGSLRLSCAASGLIFRYYAMGWYRQAPGKERELVAAIRTGGSTYYADSVKGRFTISRDNAKNTVYLQMNSLKPEDTAVYYCAALLLSWYRTSYDFDYWGQGTQVTVSS	high polyreactivity
QFQLVESGVGLVQAGASLRLSCAASVLTFVGNAMGWYRQAPGKERELVDAISKRGGRTYYADSVKGRFRISRDNAKNTVYLQMNSLKPEDTAVYYCAATIKAYPTPLLGDYWGQGTQVTVSS	high polyreactivity
QFQLVESGVGLVQAGGSLRLSCAASGRTSGSYAMGWYRQAPGKERELVAVITTSDGSTYYADSVKGRFTISRDNAKNTVYLQMNSLKPEDTEVYYCNVDYPNLWYDSYYYWGQGTEVTVSS	low polyreactivity
QFQLVESWGGLVQAGGSLRLSCAASGYIFGYVMGWYRQAPGKERELVAAITYSSGNTYYADSVKGRFTISRDNAKNTVYLQMNSLKPEDTAVYYCAKQAYYKGRLAYGYWGQATQVTVSS	high polyreactivity
QFQLVETGGGIVHAGGSLRLSCAASGSTFWYYAMGWYRQAPGKERELVAGITQSGGSTYYADSVKGRFTISRDNAKNTVYLQMNSLKPEDSAVYYFAKDGRVSGDFVYWGQGTQVTVSS	low polyreactivity
QFQLVETRRGLVQAGGSLRLSCAASGSIFLENAMRRYRQAPGKERELVAVINSGDSTYYADSVKGRFTMSRDNAKNTVYLQMNSLKPEDTSVYYCAADRDVRTRVFSYDYWGQGTQVTVSS	low polyreactivity
QGHLVESGGGLFQAGGSLRLSCAASGSILSYYALGRYRQAPGKEMEMVAVINSGGRTNYADAVKGRFTISRDNAKYTVYLQMNSLKTEDTAVYDCAAQGYFVDRAGRYYRVDYRGQGTQVTVSS	high polyreactivity
QGQLEDSGGGLVQAGGSLRLSCAASGLTYDHNAMGWYRNATGKEREFFAVISWRGTSTYYADSVKGRFTISRDNAKNTVFLQMHSLKPEDTAVYYCATRYYGDDVYRYDHWGQGTQVTVSS	high polyreactivity

Sequence	polyreactivity (PSR sort gate)
QGQLEESGGGLVQAGGSLRLSCAASGFTIYRYAKGWYRQAPGKAMELVAAISNSGGSTYYADSVKGRFTISRDNAKNTVYVQMNSLKPEDTAVYYCAADPGYNVYGYYYWGQGTQVTVSS	high polyreactivity
QGQLVEAGGGLVQAGGSLRLSCAASGNTFKKYARGWYRQAPGKERELVAAISNGGSTTYADSVKGRFTISLDTAKNTVYLQMNSLKPEDTAVYYCNAGRPYGTQKRYDYWGQGTQVTVSS	low polyreactivity
QGQLVESGAGLVQAGGSLRLSCAASGFIFYDYVMGWYRQAPGKERELVAAITGSGGGTYYADSVKGRFTISRDNAKNTVYLQMNSLKPEDTAVYYCAADYISVYGYEYWGQGTQVTVSS	high polyreactivity
QGQLVESGGCLVQAGGSRRLSCAASGRTFRGNAMGWYRQAPGKERELVPAISRRGGSTYYSDSVKGRFTISRDNAKITVYLQMNSLEPEDTADYYCARDDVDDNSYGNENGTYGYWGQGTQVTVSS	high polyreactivity
QGQLVESGGCLVQEGGSLRLSCAASGRIFWYYTMGWYRQAPGKERELVATIRSGDRKNYADSVKGRFTISLDNAKNTVYLQMNSLKPDDTAVYYCAATRALVNTHRYYYWGQGTQVTVSS	high polyreactivity
QGQLVESGGGFVQAGGSLRLSCAASGSTFRYYTMGWYRQAPGKEREFVAAITSSGTSTYYADSVKGRFTISRDIAKNTVYLQMNSLKPEDTAVYYCNKVGIYGSRSRYDSWGQGTQVTVSS	high polyreactivity
QGQLVESGGGLDQAGGSLRLSCAASGSTFPVYAMGLYRQAPGKDRELVAAITSGVSTNYADSVKGRFTISRDNAKNTVYVQKNSMKPEDTAVYYCAKEFGLLPIRDYYWGQGTQVTESS	low polyreactivity
QGQLVESGGGLLQAGGSLRLSCAASGRTFPYNALGWYRQAPGKERELVAAMSSGTRTDSADAVKGRFTISRDTAKNTVYLQMNSLKPEATAVYYWAADDYHYLWRADGFDYWGQGTQVTVSS	high polyreactivity
QGQLVESGGGLVHAGGSLRLSCAASGSIFTGNAMGWYIQAPGKEREMVAAITGRGGNTYYADSVKGRYTISRDNAKNTVYLQMMSLKPEETAGYYCAKVFFHTPIVPEYDYWGQGSQVTVSS	low polyreactivity
QGQLVESGGGLVQAGGRLRLSCAATGLTFAKNAMGWYRQAPGKEREMFAAIRSGDDTTYADSVKGRFTISRDNAKNTVYLQMNSLKPEDSAEYYCAARYYRTWDGRFGYWGQGTQVTVSS	high polyreactivity
QGQLVESGGGLVQAGGSLLLSCAASGRIFTGKAMGWSRQAPGKERELGAAIDWSGGSTYYADSVKGRFTISRDNAKNTVYLQMNSLKPEDTAVYYCNATYSNSAVGYLGFDYWGQGTQVTVSS	low polyreactivity
QGQLVESGGGLVQAGGSLRFSCADSGRIFHRYVMGWYRQAPGKERELVAAISWSSGSTSADSVKGRFTISRDNAKNTDYLQMNSLKPEDTAVYYCNASYNGVPARYDYWGQGTQVTVSS	low polyreactivity
QGQLVESGGGLVQAGGSLRIICAASANNFAKYAMGRYRQAPGKERELVAAISKRGGSTYYADSVKGRFTISRDNAKNTVYLQMNSLKPEETAVYYCAQRVLNYQRYDYWGQGTQVTVSS	high polyreactivity
QGQLVESGGGLVQAGGSLRITCAASGITFPYNAMGWYRQAPGTERELVAAITRSGASTYYADSVKGRFTISRDNSKNTVYVQMNSLKPEDTAVYYCAAKVIGRPRPYYYWGQGTQVTVSS	high polyreactivity
QGQLVESGGGLVQAGGSLRLSCAASGFTFARNVMGWSRQAPGTERELVAAITTSGGSTYYADSVKGRFTISRDNAKNTVYLQMNSLKPEDTAVYYCARRVYGYYIPYNYWGQGTQVTVSS	high polyreactivity
QGQLVESGGGLVQAGGSLRLSCAASGGIFKAYAMGWYRQAPGQERELVAVITIGGRTTYADSVKGRFTISRDNAKNTVYLQMNSLKPEDTAVYYCAKTNYNWLSTAEHDYWGQGTQVTVSS	low polyreactivity
QGQLVESGGGLVQAGGSLRLSCAASGGIFSDYAMGWYIQEPGKEREFVAAISVRGTSTDYADSVKGRFTISRDNAKNTVYLQMNSLKPEDTAVYYCNAQGAPQVRDVLPYEFDYWGQGTQVTVSS	low polyreactivity
QGQLVESGGGLVQAGGSLRLSCAASGGIFVGYPMGWYRQAPGKERELVASSDVRVGSTYYGDSVKGRFTISRDKAKNTVYLQMTSLKPEDTAVYSCEAGGRAVRIYWGYYRTSYDYWGLGTQVTVSS	low polyreactivity
QGQLVESGGGLVQAGGSLRLSCAASGGTFRAYVMGWSRQAPGKERELVADISRSGTRTYYADSVKGRFTISRDNAKNTVYLQMNSLKPEDTAVYYCAAAAKSWLFEYWGQGTQVTVSS	high polyreactivity
QGQLVESGGGLVQAGGSLRLSCAASGITVGVYARGRYRQEPGKEREFVADIDRTGGSTYAVSVKGRFTISRDIAKNTVYLQMNSLKPEDTAVYYCAAGWGFRFYYWYWGQGTQVTVSS	high polyreactivity
QGQLVESGGGLVQAGGSLRLSCAASGLTLYYYAMGWYIQAPGKERELVAAINRGGSTYYADSVKGRFTISRDNAKNTVYLQMNSLKPEDTAVYYCAVDYGVRDLTYYYWGQGTQVTVSS	low polyreactivity
